Laboratory results as given in PMC4754655 (Scientific Reports, 2016).
Where a chain is given by its changes, count along the chain named.

Key:
Conditions in all cases: both partners purified
[1] = target: T1, YU2 gp120, soluble monomer (HIV-1 isolate YU2 (clade B), UniProt P35961); experiment: ELISA; Env glycoprotein coated at 2 ug/ml in PBS pH 7.4 overnight at 4 C; IgG 5-fold serially diluted, 1 hour at RT; HRP goat anti-human IgG (H+L)
[2] = target: T2, YU2 gp140-foldon trimer (HIV-1 isolate YU2 (clade B), UniProt P35961, stabilised); experiment: as above
T2 construct: also called eliciting gp140-F immunogen; gp140 trimers; source: 293 F cells; not shown: His tag, C-terminal, kept

[3] = target: T3, JRFL gp140-F trimer (HIV-1 isolate JRFL (clade B), UniProt Q75760, stabilised); experiment: as above
T3 construct: also called JRFL foldon trimers; source: 293 F cells

[4] = target: T1, YU2 gp120, soluble monomer; experiment: BLI

B1: GEBT404, mature IgG (antibody, V domains shown)
VH: EVQLVESGGGLAKPGGSLRLSCAASGFTFSNYWMYWVRQAPGKGLEWISAINSAGSRTYYPDSVKGRFTISRENAKNTLYLQMDSLRAEDTAVYYCAKGRIAIFGLVITYFDYWGQGVLVTVSS
VL: DIQMTQSPSSLSASVGDRVTITCRASQGITNDLAWYQQKPGETPKLLIYDASSLQSGIPSRFSGSGSGTDFTLTISSLQPEDFATYYCQHYYSTPPTFGGGTKVEIK
binding result [1]: binds | binding result [2]: binds | binding result [3]: binds

B2: GEBT404, inferred germline (igL) reverted IgG (antibody, V domains shown)
VH: B1 VH with Y35H, R57S, P61A, S85G
VL: B1 VL with R24Q, D50E, P80S
notes: also called igL GEBT404; gL-reverted GEBT404
binding result [3]: binds

B3: GEBT414, mature IgG (antibody, V domains shown)
VH: EVQLVQSGAEVKRPGESLRISCKTSGYSFTGSWISWVRQMPGKGLDWMGNIYPGDSDTRYNPSFQGHVTISADKSISTTYLQWSSLKASDTATYYCAKGGGITIFGLLHYPLDSWGQGVVVTVSS
VL: DIQMTQSPSSLSASVGDTVTITCRASQGINNWLAWYQQKPGKAPKLLIYKASSLQSGVPSRFSGSGSGTDFTLTISSLQSEDFATYYCQQYNSGPLTFGGGTKVEIK
binding result [1]: binds | binding result [2]: binds | binding result [3]: binds

B4: GEBT403, mature IgG (antibody, V domains shown)
VH: EVQLVQSGAEVKKPGSSVKVSCKASGYTFTDYYMHWVRQAPGQGLEWMGEINPKTGGTNYAQKFQGRVTMTRDTSTSTAYMELSSLRSEDTAIYSCARGGQRLIPLRRFYFYYWGQGVLVTVSS
VL: QSVLTQPPSVSGAPGQKVTISCTGSSSNIGGYDVHWYQQLPGMAPKLLIYDNNERPSGISDRFSGSKSGTSASLAITGLQTEDEADYYCQSYDSSMNAWVFGGGTRLTVL
notes: also called mature GEBT403
binding result [1]: binds | binding result [2]: binds | binding result [3]: binds

B5: GEBT391, mature IgG (antibody, V domains shown)
VH: QVQLVESGGGLVQPGGSLRLSCAASGFTFSSYGMHWVRQAPGKGLEWVAVIWFDGSEKYYVDSVKDRFTISRDNSKNMLYLQMNNLKLDDTAVYYCARRGCTGSGCYLYYYALDSWGQGVVVTVSS
VL: DIQMTQSPSSLSASVGDTVTITCRASQGISSYLNWFQQKPGKAPKLLIYAATTLQSGVPSRFSGSGSGTDFTLTISSLQPEDFATYYCLQHNFYPYSFGQGTKVEIK
binding result [1]: binds | binding result [2]: binds | binding result [3]: binds

B6: GEBT412, inferred germline (igL) reverted IgG (antibody, V domains shown)
VH: B5 VH with F53Y, E57K, V61A, D89E, A112G
VL: B5 VL with T52S, T53S, Q55E, D70E
notes: also called igL GEBT412
binding result [3]: binds | binding result [4]: binds

B7: GEBT391, inferred germline (igL) reverted IgG (antibody, V domains shown)
VH: B5 VH with Q1E, F53Y, E57K, V61A, D89E
VL: B5 VL with T52S, T53S, Q55E, D70E
notes: also called igL GEBT391; gL-reverted GEBT391
binding result [2]: binds | binding result [3]: binds | binding result [4]: binds

B8: GEBT412, mature IgG (antibody, V domains shown)
VH: B5 VH with S21A, T28I, S31N, Y32H, F53Y, V61A, D89V, A112G
VL: B5 VL with Y32H
binding result [1]: binds | binding result [2]: binds | binding result [3]: binds

B9: GEBT383, mature IgG (antibody, V domains shown)
VH: QVQLQESGPAVVKPSETLSLTCAVSGGSISSSNWWSWIRQSPGKGLEWIGGVYGSSGSTEYNPSLKSRVTISIDTSKNQFSLKLSSVTAADTAVYYCVRHCTWYNNIWNGYYNGFDYWGQGVLVTVSS
VL: QSALTQPPSVSGAPGQRVTISCTGSSSNIGGYYVSWYQQLPGTVPKLLIYENKKRPSGVSDRFSGSKSGTSASLTITGLQPGDEADYYCSAWDNSLSSHVFGSGTKLTVL
notes: also called non-CD4bs-directed mAb
binding result [2]: binds
